Source: patent publication EP2857035B1 (Survac ApS, dated 2017)

B1: Sur2 (peptide)
peptide: RAIEQLAAM
notes: also called Survivin133-141
B2: Sur5 (peptide)
peptide: SVKKQFEEL
notes: also called Survivin88-96
B3: Sur7 (peptide)
peptide: TAKKVRRAI
notes: also called Survivin127-135
B4: Sur10 (peptide)
peptide: ETAKKVRRAI
notes: also called Survivin126-135
B5: Sur 53-61 (peptide)
peptide: DLAQCFFCF
B6: Sur53K9 (peptide)
peptide: DLAQCFFCK
B7: Sur 18-27 (peptide)
peptide: RISTFKNWPF
B8: Sur 84-93 (peptide)
peptide: CAFLSVKKQF
B9: Sur 101-110 (peptide)
peptide: FLKLDRERAK
B10: Sur 103-112 (peptide)
peptide: KLDRERAKNK
B11: Sur 113-122 (peptide)
peptide: IAKETNNKKK
B12: Sur13K9 (peptide)
peptide: FLKDHRISTK
B13: SurEx3-A3-2 (peptide)
peptide: PTIRRKNLRK
notes: the text says nothing of its origin
B14: Sur2b-A3-1 (peptide)
peptide: RITREEHKK
notes: as for B13
B15: Sur4-14 (peptide)
peptide: PTLPPAWQPFL
B16: Sur54-64 (peptide)
peptide: LAQCFFCFKEL
B17: Sur88-98 (peptide)
peptide: SVKKQFEELTL
B18: Sur103-113 (peptide)
peptide: KLDRERAKNKI
B19: Sur34-43 (peptide)
peptide: TPERMAEAGF
notes: also called Survivin34-43
B20: sur34Y9 (peptide)
peptide: TPERMAEAGY
B21: Sur51-59 (peptide)
peptide: EPDLAQCFF
notes: also called Survivin51-59
B22: Sur47-56 (peptide)
peptide: PTENEPDLAQ
B23: Sur49-58 (peptide)
peptide: ENEPDLAQCF
B24: sur49Y9 (peptide)
peptide: ENEPDLAQCY
B25: Sur14-22 (peptide)
peptide: LKDHRISTF
B26: sur14Y9 (peptide)
peptide: LKDHRISTY
B27: sur93Y9 (peptide)
peptide: FEELTLGEY
B28: sur92Y9 (peptide)
peptide: QFEELTLGEY
B29: Sur38-46 (peptide)
peptide: MAEAGFIHC
B30: Sur 95-103 (peptide)
peptide: ELTLGEFLK
B31: Sur6-14 (peptide)
peptide: LPPAWQPFL
notes: also called Survivin6-14
B32: Sur46-54 (peptide)
peptide: CPTENEPDL
notes: also called Survivin46-54
B33: Sur51Y9 (peptide)
peptide: EPDLAQCFY
B34: Sur46Y9 (peptide)
peptide: CPTENEPDY

target: T1, HLA-A2 (human); test: assembly assay, T2 cell lysate
T1 construct: MHC class I molecule without added peptide, from cell lysate; stably folded molecules immunoprecipitated with a conformation-dependent antibody; also called HLA-A*0201; HLA A*0201

Does B1 bind?
Result: no binding

Does B2 bind?
Result: no binding

Does B3 bind?
Result: no binding

Does B4 bind?
Result: no binding

target: T2, HLA-A3 (human); test: assembly assay, TAP-deficient cell lysate
T2 construct: MHC class I molecule from cell lysate; immunoprecipitated with mAb W6/32; also called HLA-A*0301

Does B5 bind?
Result: no binding

Does B6 bind?
Result: no binding

Does B7 bind?
Result: no binding

Does B8 bind?
Result: no binding

Does B9 bind?
Result: no binding

Does B10 bind?
Result: no binding

Does B11 bind?
Result: no binding

Does B12 bind?
Result: no binding

Does B13 bind?
Result: no binding

Does B14 bind?
Result: no binding

target: T1, HLA-A2; test: assembly assay, TAP-deficient cell lysate

Does B15 bind?
Result: no binding

Does B16 bind?
Result: no binding

Does B17 bind?
Result: no binding

Does B18 bind?
Result: no binding

target: T3, HLA-A1 (human); test: assembly assay, TAP-deficient cell lysate
T3 construct: MHC class I molecule; also called HLA-A*0101

Does B19 bind?
Result: no binding (tested: peptide tested at 40, 4, 0.4, 0.04 µM)

Does B20 bind?
Result: no binding (tested: peptide tested at 40, 4, 0.4, 0.04 µM)

Does B21 bind?
Result: no binding (tested: peptide tested at 40, 4, 0.4, 0.04 µM)

Does B22 bind?
Result: no binding (tested: peptide tested at 40, 4, 0.4, 0.04 µM)

Does B23 bind?
Result: no binding (tested: peptide tested at 40, 4, 0.4, 0.04 µM)

Does B24 bind?
Result: no binding (tested: peptide tested at 40, 4, 0.4, 0.04 µM)

Does B25 bind?
Result: no binding (tested: peptide tested at 40, 4, 0.4, 0.04 µM)

Does B26 bind?
Result: no binding (tested: peptide tested at 40, 4, 0.4, 0.04 µM)

Does B27 bind?
Result: no binding (tested: peptide tested at 40, 4, 0.4, 0.04 µM)

Does B28 bind?
Result: no binding (tested: peptide tested at 40, 4, 0.4, 0.04 µM)

Does B29 bind?
Result: no binding (tested: peptide tested at 40, 4, 0.4, 0.04 µM)

target: T4, HLA-A11 (human); test: assembly assay, TAP-deficient cell lysate
T4 construct: MHC class I molecule from cell lysate; immunoprecipitated with mAb W6/32; also called HLA-A*1101

Does B5 bind?
Result: no binding (tested: peptide tested at 40, 4, 0.4, 0.04 µM)

Does B7 bind?
Result: no binding (tested: peptide tested at 40, 4, 0.4, 0.04 µM)

Does B8 bind?
Result: no binding (tested: peptide tested at 40, 4, 0.4, 0.04 µM)

Does B9 bind?
Result: no binding (tested: peptide tested at 40, 4, 0.4, 0.04 µM)

Does B10 bind?
Result: no binding (tested: peptide tested at 40, 4, 0.4, 0.04 µM)

Does B11 bind?
Result: no binding (tested: peptide tested at 40, 4, 0.4, 0.04 µM)

Does B30 bind?
Result: no binding (tested: peptide tested at 40, 4, 0.4, 0.04 µM)

target: HLA-B35 (human); test: assembly assay, T2-B35 cell lysate, W6/32 IP, IEF gel

For B31, which C50 is on record?
The C50 was over 100 µM.

For B19, which C50 is on record?
The C50 was over 100 µM.

B32 was tested. Which C50 did it give?
The C50 was 20 µM.

B33 was tested. Which C50 did it give?
Its C50 is 1.5 µM.

With B21 as the binder, how does the C50 read?
Its C50 is 13 µM.

Which C50 does the source give for B34 here?
Its C50 is 4 µM.
